Experimental data published in patent US20140328753A1 (UNIVERSITE BORDEAUX SEGALEN, published 2014).

Legend:
biotinylated BSA = target: T1, biotinylated BSA (bovine, UniProt P02769 25-607, biotinylated); assay: direct TR-FRET, scFv coated
T1 construct: Control protein in the direct TR-FRET assay, at 50 ug/mL; also called biotinylated control protein; bovine serum albumin
Description: FIG. 4. Direct TR-FRET binding assays between scFvs and atheromatous tissue extracts. Direct TR-FRET principle is schematized at the top. The donor fluorophore europium cryptate (Eu)K conjugated to anti-c-myc mAb was able to recognize c-myc tag expressed by scFvs. The acceptor fluorophore XL665 conjugated to streptavidin bound biotinylated protein extract. When scFvs and target proteins bound, a FRET signal was recorded. […] Specific TR-FRET signal was measured as a percentage DeltaF (percent DeltaF). The time course of the detection of the complex formation was performed after 6 hours (▪), 16 hours ( ), 24 hours ( ) and 40 hours (□) of incubation at 4° C. Ten microliter of scFv were coated on the plate at concentrations between 3 and 10 μg/mL according to the clone. The signals were measured in the presence of 4 nmol/L of mAb-(Eu)K, 4 nmol/L of streptavidin-XL665, and 30 μg/mL of biotinylated atheromatous protein extract or 50 μg/mL of biotinylated BSA (data not shown). Histobar values represent the average of at least three independent experiments±SD performed from the same purified scFv production.
Binding assays between scFvs and atheromatous protein extracts were assessed by direct TR-FRET. Black Fluotrac 600 microplate (Greiner) was coated with 10 μL of scFv (final concentration comprised between 3 and 10 μg/mL according to the clone) in 0.1 mol/L NaHCO₃, pH 8.6 for 16 hours at 4° C. Subsequently, plates were blocked for 3 hours at 4° C. using 1% BSA (w/v) in PBS solution. Following washing in PBS, 30 μg/mL of biotinylated atheromatous protein extract in 1% BSA/PBS was incubated for 16 hours at 4° C. After washing in PBS, 50 μL of reaction buffer (100 mmol/L Phosphate buffer, pH 7; 400 mmol/L KF buffer; 0.1% BSA), 4 nmol/L of anti c-myc-(Eu)K (Cisbio Bioassays, Codolet, France) and 4 nmol/L of streptavidin-XL665 (Cisbio Bioassays) were incubated in a final volume of 100 μL. FRET signal emission was measured and monitored with an Infinite® F500 reader (Tecan, Lyon, France) on a 40-hour time course. The percent DeltaF values reported the intensity of the direct binding between scFvs and protein extract.

[1] = target: human recombinant carbonic anhydrase II (human, UniProt P00918 1-260); assay: ELISA, CA-II coated at 10 µg/mL, scFv at 10 µg/mL
Description: Ninety-six well ELISA microtiter plates (Greiner) were coated overnight, at 4° C., with 100 µL of human recombinant carbonic anhydrase II (Sigma-Aldrich, St louis, USA) at a final concentration of 10 μg/mL, or bovine serum albumin at 50 μg/mL in carbonate buffer (NaHCO3/Na2CO3, 50 mmol/L, pH 9.6). All further reactions were carried out at room temperature. Following three washing steps with PBS-Tween 20 (0.5% Tween 20), 100 μL of purified K3.1 scFv at 10 μg/mL were added to each well. After a 2-h incubation and five washing steps, bound scFv was labeled with a mix of HRP-conjugated anti c-myc (diluted 1/1000, Miltenyi Biotech) and anti 6His (diluted 1/500, Roche Diagnostics) mAbs. After 1-h incubation and washing steps, color was developed with 100 μL of 3,3′,5,5′-Tetramethylbenzidine (TMB) liquid substrate system for ELISA (Sigma) and the absorbance was read at 450 nm with an Infinite® F500 reader (Tecan, Lyon, France).

[2] = target: T2, rabbit cytosolic carbonic anhydrase isoenzyme II (CA-II) (rabbit, UniProt P00919 2-260); assay: immunoprecipitation from rabbit atherosclerotic lysate on nickel beads, SDS-PAGE, LC-MS/MS
T2 construct: Pulled down from the lysate of rabbit atherosclerotic aorta; also called CA-II protein; protein with an apparent molecular mass of ~29 kDa
Description: Nickel-coated superparamagnetic beads (Ademtech, Pessac, France) were pre-washed three times with 500 μL of Binding Buffer (BB) (20 mmol/L Tris, pH 7; 500 mmol/L NaCl) and then incubated for 1 hour with 1 mg of rabbit atheromatous proteins solubilized in low stringent lysis buffer in order to get rid of nonspecific binding proteins. The supernatant free of nonspecific binding proteins was recovered and incubated with 10 μg of purified K3.1 scFv or of an irrelevant scFv for 16 hours at 4° C. under rotation. The next day, 20 μL of clean pre-washed superparamagnetic beads were added and incubated for a further 1 hour at 20° C. After three washings with 500 μL of BB, the immunoprecipitated complexes were eluted with 2×30 μL of elution buffer (20 mmol/L Tris-HCl, pH 7.5; 500 mmol/L NaCl; 100 mmol/L imidazole). The protein complexes were then separated using 10% SDS-PAGE under reducing conditions. The band was excised and submitted to trypsin digestion, followed by liquid chromatrography-tandem mass spectrometry analysis (LC-MS/MS).
To identify the molecule recognized by purified K3.1 scFv, immunoprecipitation experiments using nickel superparamagnetic beads were performed to retain 6H is-tagged scFvs complexed to antigens contained in the rabbit atherosclerotic protein lysate. […]

T1 sequence (P02769 25-607 limits assumed): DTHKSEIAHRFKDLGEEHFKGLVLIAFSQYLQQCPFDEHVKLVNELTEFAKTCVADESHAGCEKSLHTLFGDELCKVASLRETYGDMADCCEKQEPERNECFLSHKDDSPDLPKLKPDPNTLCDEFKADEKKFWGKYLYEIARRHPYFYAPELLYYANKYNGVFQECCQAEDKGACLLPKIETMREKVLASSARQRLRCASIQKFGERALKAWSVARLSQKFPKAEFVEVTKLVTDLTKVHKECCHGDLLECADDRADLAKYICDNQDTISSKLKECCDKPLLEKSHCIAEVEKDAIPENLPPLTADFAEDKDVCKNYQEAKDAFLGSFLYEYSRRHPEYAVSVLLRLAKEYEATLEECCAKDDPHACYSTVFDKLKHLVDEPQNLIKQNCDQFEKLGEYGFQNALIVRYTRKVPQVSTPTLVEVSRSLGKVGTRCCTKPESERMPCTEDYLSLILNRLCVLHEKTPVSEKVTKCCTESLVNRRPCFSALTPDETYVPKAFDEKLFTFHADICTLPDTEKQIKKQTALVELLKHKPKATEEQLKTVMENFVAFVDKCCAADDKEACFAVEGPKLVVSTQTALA

binding result [1]	binding result [2]	Binder	binding result (biotinylated BSA)
–	–	C3.3 scFv antibody (scFv, Soluble scFv with c-myc and 6His tags) scFv: EVQLVESGGSLVKPGGSLRLSCAASGFTFSNYSMNWVRQAPGKGLEWISSISGSSRYIYYADFVKGRFTISRDNATNSLYLQMNSLRAEDTAVYYCVRGIDGGGGWNYFDHWGRGTLVTVSSGGGGSGGGGSGGGGSQSVLTQPASVSGSPGQSITISCAGTSSDVGGYNYVSWYQQHPGKAPKLMIYEDSKRPSGVSNRFSGSKSGNTASLTISGLQAEDEADYYCRQPSNSPPLNFGGGTKLAV	no binding (tested: 50 µg/mL of biotinylated BSA)
–	–	I8.1 scFv antibody (scFv, Soluble scFv with c-myc and 6His tags) scFv: EVQLVESGGSLVKPGGSLRLSCAASGFTFSNYSMNWVRQAPGKGLEWISSISGSSRYIYYADFVKGRFTISRDNATNSLYLQMNSLRAEDTAVYYCVRNSFYASWSKDYSMEIWGRGTLVTVSSGGGGSGGGGSGGGGSQSVLTQPASVSGSPGQSITISCAGTSSDVGGYNYVSWYQQHPGKAPKLMIYEDSKRPSGVSNRFSGSKSGNTASLTISGLQAEDEADYYCQSWASRINIFGGGTKLAV	no binding (tested: 50 µg/mL of biotinylated BSA)
binds	binds	K3.1 scFv antibody (scFv, Human scFv from a semi-synthetic library (13R4 framework), made soluble in E. coli HB2151 and purified on nickel; It carried c-myc and 6His tags in the assays) scFv: EVQLVESGGSLVKPGGSLRLSCAASGFTFSNYSMNWVRQAPGKGLEWISSISGSSRYIYYADFVKGRFTISRDNATNSLYLQMNSLRAEDTAVYYCVRGEGLYSGSYNLHYWGRGTLVTVSSGGGGSGGGGSGGGGSQSVLTQPASVSGSPGQSITISCAGTSSDVGGYNYVSWYQQHPGKAPKLMIYEDSKRPSGVSNRFSGSKSGNTASLTISGLQAEDEADYFCGTPNTHALWVFGGGTKLAV	no binding (tested: 50 µg/mL of biotinylated BSA)
–	–	H2.1 scFv antibody (scFv, Soluble scFv with c-myc and 6His tags) scFv: EVQLVESGGSLVKPGGSLRLSCAASGFTFSNYSMNWVRQAPGKGLEWISSISGSSRYIYYADFVKGRFTISRDNATNSLYLQMNSLRAEDTAVYYCVRGGVDSSGDNCFDLWGRGTLVTVSSGGGGSGGGGSGGGGSQSVLTQPASVSGSPGQSITISCAGTSSDVGGYNYVSWYQQHPGKAPKLMIYEDSKRPSGVSNRFSGSKSGNTASLTISGLQAEDEADYYCTSYGSGATLVFGGGTKLAV	no binding (tested: 50 µg/mL of biotinylated BSA)
